Results published in the Immune Epitope Database (IEDB).

Legend:
[1] = target: HLA-A*02:01; assay: IEDB peptide-MHC binding, purified MHC/competitive/radioactivity; ≥ and ≤ were set here for values at or beyond the usual limits of such assays
[2] = target: HLA-A*02:01; assay: IEDB peptide-MHC binding, purified MHC/direct/fluorescence; filed as Kd, often an IC50 or EC50 that approximates it; ≥ and ≤ were set here for values at or beyond the usual limits of such assays
[3] = target: HLA-A*02:12; assay: as above; conditions: source organism: Ravn virus - Ravn, Kenya, 1987
[4] = target: HLA-A*29:02; assay: as above; conditions: source organism: Ravn virus - Ravn, Kenya, 1987
[5] = target: HLA-A*30:01; assay: as above
[6] = target: HLA-A*69:01; assay: as above
[7] = target: HLA-B*07:02; assay: as above
[8] = target: HLA-B*15:01; assay: as above
[9] = target: HLA-B*15:17; assay: as above; conditions: source organism: Ravn virus - Ravn, Kenya, 1987
[10] = target: HLA-B*18:01; assay: as above; conditions: source organism: Ravn virus - Ravn, Kenya, 1987
[11] = target: HLA-B*40:01; assay: as above
[12] = target: HLA-B*44:02; assay: as above
[13] = target: HLA-B*51:01; assay: as above; conditions: source organism: Ravn virus - Ravn, Kenya, 1987
[14] = target: HLA-B*57:01; assay: as above
[15] = target: HLA-B*58:01; assay: as above
[16] = target: HLA-A*01:01; assay: as above
[17] = target: HLA-A*03:01; assay: as above
[18] = target: HLA-B*35:01; assay: IEDB peptide-MHC binding, purified MHC/competitive/fluorescence; filed as Kd, often an IC50 or EC50 that approximates it; ≥ and ≤ were set here for values at or beyond the usual limits of such assays
[19] = target: HLA-B*08:01; assay: as above; conditions: source organism: Escherichia coli 536
[20] = target: HLA-B*15:01; assay: as above
[21] = target: HLA-B*15:42; assay: as above; conditions: source organism: Escherichia coli 536
[22] = target: HLA-B*45:06; assay: as above; conditions: source organism: Escherichia coli 536
[23] = target: HLA-B*83:01; assay: as above; conditions: source organism: Escherichia coli 536
[24] = target: HLA-A*23:01; assay: as above
[25] = target: HLA-B*51:01; assay: as above
[26] = target: HLA-A*24:03; assay: IEDB peptide-MHC binding, purified MHC/direct/fluorescence; filed as Kd, often an IC50 or EC50 that approximates it; ≥ and ≤ were set here for values at or beyond the usual limits of such assays
[27] = target: HLA-A*26:01; assay: as above
[28] = target: HLA-B*08:01; assay: as above
[29] = target: HLA-B*27:05; assay: as above
[30] = target: HLA-A*02:01; assay: IEDB peptide-MHC binding, purified MHC/competitive/fluorescence; filed as Kd, often an IC50 or EC50 that approximates it; ≥ and ≤ were set here for values at or beyond the usual limits of such assays; conditions: source organism: Vibrio antiquarius
[31] = target: HLA-A*02:12; assay: as above; conditions: source organism: Vibrio antiquarius
[32] = target: HLA-A*03:01; assay: as above; conditions: source organism: Vibrio antiquarius
[33] = target: HLA-A*24:03; assay: as above; conditions: source organism: Vibrio antiquarius
[34] = target: HLA-A*26:01; assay: as above; conditions: source organism: Vibrio antiquarius
[35] = target: HLA-A*29:02; assay: as above; conditions: source organism: Vibrio antiquarius
[36] = target: HLA-B*15:17; assay: as above; conditions: source organism: Vibrio antiquarius
[37] = target: HLA-B*18:01; assay: as above; conditions: source organism: Vibrio antiquarius
[38] = target: HLA-B*27:03; assay: as above; conditions: source organism: Vibrio antiquarius
[39] = target: HLA-B*39:01; assay: as above; conditions: source organism: Vibrio antiquarius
[40] = target: HLA-B*46:01; assay: as above; conditions: source organism: Vibrio antiquarius
[41] = target: HLA-B*57:01; assay: as above; conditions: source organism: Vibrio antiquarius
[42] = target: HLA-A*11:01; assay: IEDB peptide-MHC binding, purified MHC/direct/fluorescence; filed as Kd, often an IC50 or EC50 that approximates it; ≥ and ≤ were set here for values at or beyond the usual limits of such assays; conditions: source organism: Escherichia coli
[43] = target: HLA-A*31:01; assay: as above; conditions: source organism: Escherichia coli
[44] = source organism: Marburg virus - Musoke, Kenya, 1980
[45] = source organism: Ravn virus - Ravn, Kenya, 1987
[46] = source organism: Mycobacterium tuberculosis variant bovis
[47] = source organism: Escherichia coli 536
[48] = source organism: Yersinia pestis Nepal516
[49] = source organism: Yersinia pestis
[50] = source organism: Vibrio antiquarius
[51] = source organism: Salmonella enterica
[52] = source organism: Escherichia coli

In the case of VILGVLLLI, the IC50 ([1]; source organism: Homo sapiens) is reported as 164 nM.

In the case of NLFDWMHFL, the Kd [2, 44] is reported as ≤ 0.001 µM, the Kd [3] is reported as 6 nM and the Kd [4] is reported as 2420 nM. For the same sequence, the Kd [5, 45] was ≥ 20 µM, the Kd [6, 44] was 0.0025 µM and the Kd [7, 45] was ≥ 20 µM. The Kd [8, 45] was ≥ 20 µM, the Kd [9] was ≥ 20 µM and the Kd [10] was ≥ 20 µM. The Kd [11, 45] was ≥ 20 µM, the Kd [12, 45] was ≥ 20 µM and the Kd [13] was ≥ 20 µM. The Kd [14, 45] was ≥ 20 µM and the Kd [15, 45] was ≥ 20 µM.

MLAPSTLGY was tested, and the Kd [16, 46] was 52 nM, the Kd [17, 46] was 34.5 nM and the Kd ([18]; source organism: Mycobacterium tuberculosis F11) was ≤ 0.1 nM.

With YSRMLYIEF the Kd [19] was ≥ 20000 nM, the Kd [20, 47] was 4.2 µM and the Kd [21] was ≥ 5 µM. For the same sequence, the Kd [22] was ≥ 5 µM and the Kd [23] was ≥ 5000 nM.

Work on PTLDKVLEV yielded an IC50 ([1]; source organism: Homo sapiens) of 2000 nM.

Work on FFIQTDAAI yielded a Kd ([24]; source organism: Paramagnetospirillum magnetotacticum MS-1) of 1.7 nM.

For GLGQVPLIV, the IC50 ([1]; source organism: Homo sapiens) was 500 nM.

In the case of HPASRLFPF, the Kd [19] is reported as 43.4 nM, the Kd [21] is reported as ≥ 5 µM and the Kd [18, 47] is reported as 0.2 nM. The Kd [22] was ≥ 5 µM, the Kd [25, 47] was ≥ 20 µM and the Kd [23] was 53.4 nM.

In the case of AFASLQDML, the Kd [2, 48] is reported as ≥ 20 µM, the Kd [17, 49] is reported as ≥ 20000 nM and the Kd [26, 49] is reported as 1280 nM. The Kd [27, 48] was ≥ 20 µM, the Kd [5, 49] was ≥ 20 µM and the Kd [6, 48] was ≥ 20 µM. The Kd [7, 48] was ≥ 20 µM, the Kd [28, 48] was ≥ 20 µM and the Kd [8, 48] was ≥ 20 µM. For the same sequence, the Kd [29, 48] was ≥ 20000 nM, the Kd [11, 48] was ≥ 20 µM and the Kd [12, 48] was ≥ 20 µM. For the same sequence, the Kd [15, 48] was ≥ 20 µM.

GLSRYVARLS showed an IC50 ([1]; source organism: Hepatitis B virus) of 877 nM.

RMYSPISIL was tested, and the IC50 ([1]; source organism: Human immunodeficiency virus 1) was 56 nM.

In the case of LYQKNIEHF, the Kd ([24]; source organism: Vibrio vulnificus YJ016) is reported as ≤ 0.1 nM.

In the case of VTGCASLYV, the Kd [30] is reported as 46.3 nM, the Kd [31] is reported as 36.8 nM and the Kd [32] is reported as ≥ 20 µM. The Kd [24, 50] was ≥ 20000 nM, the Kd [33] was ≥ 20 µM and the Kd [34] was ≥ 20 µM. The Kd [35] was ≥ 20 µM, the Kd [20, 50] was ≥ 20 µM and the Kd [36] was ≥ 20 µM. The Kd [37] was ≥ 20 µM, the Kd [38] was ≥ 20 µM and the Kd [39] was ≥ 20 µM. For the same sequence, the Kd [40] was ≥ 20 µM, the Kd [25, 50] was ≥ 20 µM and the Kd [41] was ≥ 20 µM.

With LAALGDTAW the Kd ([14]; source organism: West Nile virus) was 6.18 µM and the Kd ([18]; source organism: Japanese encephalitis virus) was 89.2 nM.

Sequence LLDGTATLRL has an IC50 ([1]; source organism: Homo sapiens) of 500 nM.

ALMRWRHPR was tested, and the Kd [16, 51] was ≥ 20000 nM, the Kd [2, 52] was 9.62 µM and the Kd [17, 52] was 99.4 nM. For the same sequence, the Kd [42] was 9.36 nM, the Kd [26, 51] was ≥ 20000 nM and the Kd [27, 51] was ≥ 20 µM. The Kd [5, 52] was 0.00461 µM, the Kd [43] was 5.44 nM and the Kd [6, 51] was ≥ 20 µM. The Kd [7, 51] was ≥ 20 µM, the Kd [28, 51] was ≥ 20 µM and the Kd [8, 51] was ≥ 20 µM. For the same sequence, the Kd [29, 52] was 237 nM, the Kd [11, 51] was ≥ 20 µM and the Kd [12, 51] was ≥ 20 µM. The Kd [15, 51] was ≥ 20 µM.
